From the supplement of paper PMC7877785
± gives the uncertainty stated by the source.

Assay: self-splicing fitness, log relative to wild type (ln ratio); higher = more splicing; Tetrahymena group I intron in knt gene, E. coli kanamycin selection, DiMSum; sequences stand for … in CUCUCU…GGAGGGAAAAGUUAUCAGGCAUGCACCUGGUAGCUAGUCUUUAAACCAAUAGAUUGCAUCGGUUUAAAAGGCAAGACCGUCAAAUUGCGGGAAAGGGGUCAACAGCCGUUCAGUACCAAGUCUCAGGGGAAACUUUGAGAUGGCCUUGCAAAGGGUAUGGUAAUAAGCUGACGGACAUGGUCCUAACCACGCAGCCAAGUCCUAAGUCAACAGAUCUUCUGUUGAUAUGGAUGCAGUUCACAGACUAAAUGUCGGUCGGGGAAGAUGUAUUCUUCUCAUAAGAUAUAGUCGGACCUCUCCUUAAUGGGAGCUAGCGGAUGAAGUGAUGCAACACUGGAGCCGCUGGGAACUAAUUUGUAUGCGAAAGUAUAUUGAUUAGUUUUGGAGUACUCGUGGUCG
Method in brief: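 Pooled colonies went to amplicon sequencing on an Illumina HiSeq 2500 after six replicate transformations. The plates were LB agar with 100 μg/mL carbenicillin, 50 μM IPTG and 0.2% rhamnose, with or without 25 μg/mL kanamycin, incubated overnight at 37°C or 30°C. The E. coli BL21(DE3) library had all eight P1ex-region intron nucleotides randomised, the intron placed in the knt kanamycin-resistance gene on pET-22b(+). DiMSum fitness is the error-weighted combination of replicate fold changes, kanamycin against none, normalised to wild type.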

UGACAGCAAUAUUACGAGAA
self-splicing fitness (ln) (37 °C): -2.33 ± 0.29

CUCCAGCAAUAUUACGCACU
self-splicing fitness (ln) (30 °C): -2.56 ± 0.14 | self-splicing fitness (ln) (37 °C): -3.09 ± 0.32

UUAGAGCAAUAUUACGGGAA
self-splicing fitness (ln) (30 °C): -2.25 ± 0.16 | self-splicing fitness (ln) (37 °C): -0.296 ± 0.16

CAAGAGCAAUAUUACGACAG
self-splicing fitness (ln) (30 °C): -0.511 ± 0.08 | self-splicing fitness (ln) (37 °C): 0.045 ± 0.11

GCAGAGCAAUAUUACGCAGA
self-splicing fitness (ln) (30 °C): -2.78 ± 0.42 | self-splicing fitness (ln) (37 °C): -2.22 ± 0.34

ACGAAGCAAUAUUACGUGCC
self-splicing fitness (ln) (30 °C): -1.6 ± 0.079 | self-splicing fitness (ln) (37 °C): -0.89 ± 0.1

CAACAGCAAUAUUACGGUGC
self-splicing fitness (ln) (30 °C): -3.12 ± 0.12 | self-splicing fitness (ln) (37 °C): -2.8 ± 0.16

AUUCAGCAAUAUUACGUUCA
self-splicing fitness (ln) (30 °C): -1.07 ± 0.12 | self-splicing fitness (ln) (37 °C): -0.606 ± 0.13

UGGGAGCAAUAUUACGGUUU
self-splicing fitness (ln) (30 °C): -3.58 ± 0.16 | self-splicing fitness (ln) (37 °C): -3.35 ± 0.23

UUGAAGCAAUAUUACGGCGA
self-splicing fitness (ln) (30 °C): 0.203 ± 0.088 | self-splicing fitness (ln) (37 °C): 0.256 ± 0.12

CCUUAGCAAUAUUACGAAGG
self-splicing fitness (ln) (30 °C): -3.53 ± 0.32

UAACAGCAAUAUUACGAGUG
self-splicing fitness (ln) (30 °C): -0.621 ± 0.038 | self-splicing fitness (ln) (37 °C): -0.34 ± 0.056

UUCGAGCAAUAUUACGGUAU
self-splicing fitness (ln) (30 °C): -3.95 ± 0.22 | self-splicing fitness (ln) (37 °C): -2.22 ± 0.23

GCCGAGCAAUAUUACGGCAA
self-splicing fitness (ln) (30 °C): -2.4 ± 0.33 | self-splicing fitness (ln) (37 °C): -1.91 ± 0.31

CAGUAGCAAUAUUACGACAU
self-splicing fitness (ln) (30 °C): -3.226 ± 0.023 | self-splicing fitness (ln) (37 °C): -1.83 ± 0.036

GCCGAGCAAUAUUACGUGAC
self-splicing fitness (ln) (30 °C): -2.14 ± 0.15 | self-splicing fitness (ln) (37 °C): -1.16 ± 0.19

ACCAAGCAAUAUUACGCAAA
self-splicing fitness (ln) (30 °C): -1.56 ± 0.12 | self-splicing fitness (ln) (37 °C): -1.74 ± 0.15

GAAUAGCAAUAUUACGCGUG
self-splicing fitness (ln) (30 °C): -1.01 ± 0.075 | self-splicing fitness (ln) (37 °C): -0.747 ± 0.094

AAUAAGCAAUAUUACGGACC
self-splicing fitness (ln) (30 °C): -1.54 ± 0.12 | self-splicing fitness (ln) (37 °C): -0.72 ± 0.15

GGGCAGCAAUAUUACGUAAC
self-splicing fitness (ln) (30 °C): -1.94 ± 0.18 | self-splicing fitness (ln) (37 °C): -0.668 ± 0.2

UUUCAGCAAUAUUACGGAAG
self-splicing fitness (ln) (30 °C): -1.69 ± 0.12 | self-splicing fitness (ln) (37 °C): -0.536 ± 0.19

GAGCAGCAAUAUUACGCGGA
self-splicing fitness (ln) (30 °C): -2.11 ± 0.11 | self-splicing fitness (ln) (37 °C): -0.965 ± 0.09

UUCGAGCAAUAUUACGACGA
self-splicing fitness (ln) (30 °C): -0.356 ± 0.3 | self-splicing fitness (ln) (37 °C): -0.0591 ± 0.21

UACCAGCAAUAUUACGGUUC
self-splicing fitness (ln) (30 °C): -3.88 ± 0.18 | self-splicing fitness (ln) (37 °C): -1.38 ± 0.14

UGGCAGCAAUAUUACGCCUU
self-splicing fitness (ln) (30 °C): -1.65 ± 0.14 | self-splicing fitness (ln) (37 °C): -0.596 ± 0.21

UAUGAGCAAUAUUACGCAUU
self-splicing fitness (ln) (30 °C): -3.57 ± 0.25 | self-splicing fitness (ln) (37 °C): -2.15 ± 0.22

UCAAAGCAAUAUUACGGCGA
self-splicing fitness (ln) (30 °C): -0.708 ± 0.074 | self-splicing fitness (ln) (37 °C): -0.462 ± 0.068

UUAGAGCAAUAUUACGUGUA
self-splicing fitness (ln) (30 °C): -3.04 ± 0.18 | self-splicing fitness (ln) (37 °C): -1.83 ± 0.17

UGCAAGCAAUAUUACGCGAG
self-splicing fitness (ln) (30 °C): -3.25 ± 0.15 | self-splicing fitness (ln) (37 °C): -2.36 ± 0.16

CCCAAGCAAUAUUACGACCA
self-splicing fitness (ln) (30 °C): -4.66 ± 0.32 | self-splicing fitness (ln) (37 °C): -2.27 ± 0.17

CAUUAGCAAUAUUACGUUGG
self-splicing fitness (ln) (30 °C): -2.05 ± 0.085 | self-splicing fitness (ln) (37 °C): -1.03 ± 0.1

GAAGAGCAAUAUUACGGAGA
self-splicing fitness (ln) (30 °C): -3.22 ± 0.31 | self-splicing fitness (ln) (37 °C): -1.88 ± 0.32

CCUUAGCAAUAUUACGAAGA
self-splicing fitness (ln) (30 °C): -2.58 ± 0.27 | self-splicing fitness (ln) (37 °C): -3.3 ± 0.26

UUCGAGCAAUAUUACGCCGG
self-splicing fitness (ln) (30 °C): -1.98 ± 0.39

UGAAAGCAAUAUUACGCCUU
self-splicing fitness (ln) (30 °C): -0.914 ± 0.2 | self-splicing fitness (ln) (37 °C): -2.01 ± 0.34

GAUGAGCAAUAUUACGUGGA
self-splicing fitness (ln) (30 °C): -2.47 ± 0.21 | self-splicing fitness (ln) (37 °C): -2.5 ± 0.22

AUUAAGCAAUAUUACGCUCU
self-splicing fitness (ln) (30 °C): -0.588 ± 0.18 | self-splicing fitness (ln) (37 °C): 0.11 ± 0.16

UUGUAGCAAUAUUACGUUGU
self-splicing fitness (ln) (30 °C): -3.77 ± 0.27 | self-splicing fitness (ln) (37 °C): -2.81 ± 0.24

CUUUAGCAAUAUUACGCGUG
self-splicing fitness (ln) (30 °C): -1.89 ± 0.14 | self-splicing fitness (ln) (37 °C): -1.12 ± 0.17

UUGUAGCAAUAUUACGUUAU
self-splicing fitness (ln) (30 °C): -2.7 ± 0.41 | self-splicing fitness (ln) (37 °C): -2.1 ± 0.25

ACACAGCAAUAUUACGUAUA
self-splicing fitness (ln) (30 °C): -3.41 ± 0.13 | self-splicing fitness (ln) (37 °C): -2.5 ± 0.12

GACCAGCAAUAUUACGAUGU
self-splicing fitness (ln) (30 °C): -0.366 ± 0.055 | self-splicing fitness (ln) (37 °C): 0.0308 ± 0.072

GCAGAGCAAUAUUACGCGAG
self-splicing fitness (ln) (30 °C): -3.58 ± 0.35 | self-splicing fitness (ln) (37 °C): -2.46 ± 0.28
